Numbering of substitutions follows the chain as printed.
B1: ncAA-tagged TARP γ2 S44* with eGFP in the C-tail (natural protein)
chain: MGLFDRGVQMLLTTVGAFAAFSLMTIAVGTDYWLYSRGVCKTKKVSENETSKKNEEVMTHSGLWRTCCLEGNFKGLCKQIDHFPEDADYEADTAEYFLRAVRASSIFPILSVILLFMGGLCIAASEFYKTRHNIILSAGIFFVSAGLSNIIGIIVYISANAGDPSKSDSKKNSYSYGWSFYFGALSFIIAEMVGVLAVHMFIDRHKQLRATARATDYLQASAITRIPSYRYRYQRRSRSSSRSTEPSHSRDASPVGVKGFNTLPSTEISMYTLSRDPLKAATTPTATYNSDRDNSFLQVHNCIQKDSKDSLHANTANRRTTPV
modifications: TCO*A (trans-cyclooct-2-en-L-lysine) at position 44
B2: TARP γ2 with eGFP in the C-tail (natural protein)
chain: B1 chain with K44S
B3: TARP γ8 with eGFP in the C-tail (natural protein)
chain: MESLKRWNEERGLWCEKGVQVLLTTIGAFAAFGLMTIAISTDYWLYTRALICNTTNLTAGDDGPPHRGGSGSSEKKDPGGLTHSGLWRICCLEGLKRGVCVKINHFPEDTDYDHDSAEYLLRVVRASSIFPILSAILLLLGGVCVAASRVYKSKRNIILGAGILFVAAGLSNIIGVIVYISANAGEPGPKRDEEKKNHYSYGWSFYFGGLSFILAEVIGVLAVNIYIERSREAHCQSRSDLLKAGGGAGGSGGSGPSAILRLPSYRFRYRRRSRSSSRGSSEASPSRDASPGGPGGPGFASTDISMYTLSRDPSKGSVAAGLASAGGGGGGAGVGAYGGAAGAAGGGGTGSERDRGSSAGFLTLHNAFPKEAASGVTVTVTGPPAAPAPAPPAPAAPAPGTLSKEAAASNTNTLNRKTTPV
B4: ncAA-tagged TARP γ8 S72* with eGFP in the C-tail (natural protein)
chain: B3 chain with S72K
modifications: TCO*A (trans-cyclooct-2-en-L-lysine) at position 72

Target: AMPAR subunit GluA1, flip isoform (UniProt P19490)

| Binder | receptor recovery from desensitization, τrec (GluA1 alone 162.6 ms) [ms] |
| --- | --- |
| B1 | 62.3 |
| B2 | 57.1 |
| B3 | 40.9 |
| B4 | 45.8 |
